Data reported in patent US20210395394A1.

B1: Mutation 1-19 (antibody, mouse IgG2b, kappa, V domains shown)
VH: QVQLQQPGAELVRPGASVKLSCKASGYSFTNYWMNWVKQRPGQGLEWIGMIHPSDSETRLNQKFKDKATLTVDKSSSTAYMQLSSLTAEDSAVYYCARSGDFYTYYFDYWGQGTTLTVSS
VL: DIQLTQSPASLSASVGETVTITCRGSGNIHNYLAWYQQKQGKSPQLLVYNAKTLADGVPSRFSGSGSGTQYSLKINSLQPEDFGSYYCQYFWSTYTFGGGTKLEIKR
B2: Mutation 1-33 (antibody, mouse IgG2b, kappa, V domains shown)
VH: QVQLQQPGAELVRPGASVKLSCKASGTSFTNYWMNWVKQRPGQGLEWIGMIHPSESETRINQKFKDKATLTVDKSSSTAYMQLSSLTAEDSAVYYCARSGEFYTSYFDYWGQGTTLTVSS
VL: DIQLTQSPASLSASVGETVTITCRGSGNVHNYLAWYQQKQGKSPQLLVYNARTLADGVPSRFSGSGSGTQYSLKINSLQPEDFGSYYCQTFWSTYTFGGGTKLEIKR
B3: Mutation 1-28 (antibody, mouse IgG2b, kappa, V domains shown)
VH: QVQLQQPGAELVRPGASVKLSCKASGTSFTNYWMNWVKQRPGQGLEWIGMIHPSESETRLNQKFKDKATLTVDKSSSTAYMQLSSLTAEDSAVYYCAKSGEFYTYYFDYWGQGTTLTVSS
VL: DIQLTQSPASLSASVGETVTITCRGSGNIHNYLAWYQQKQGKSPQLLVYNARTIADGVPSRFSGSGSGTQYSLKINSLQPEDFGSYYCQYFWSTYTFGGGTKLEIKR
B4: Mutation 1-37 (antibody, mouse IgG2b, kappa, V domains shown)
VH: QVQLQQPGAELVRPGASVKLSCKASGSSFTNYWMNWVKQRPGQGLEWIGMIHPSDSETRLNQKFKDKATLTVDKSSSTAYMQLSSLTAEDSAVYYCAKSGDFYTYYFDYWGQGTTLTVSS
VL: DIQLTQSPASLSASVGETVTITCRGTGNLHNYLAWYQQKQGKSPQLLVYNAKTIADGVPSRFSGSGSGTQYSLKINSLQPEDFGSYYCQYFWSTYTFGGGTKLEIKR
B5: Mutation 1-25 (antibody, mouse IgG2b, kappa, V domains shown)
VH: QVQLQQPGAELVRPGASVKLSCKASGTSFTNYWMNWVKQRPGQGLEWIGMIHPSDSETRLNQKFKDKATLTVDKSSSTAYMQLSSLTAEDSAVYYCAKSGDFYTYYFDYWGQGTTLTVSS
VL: DIQLTQSPASLSASVGETVTITCRGTGNLHNYLAWYQQKQGKSPQLLVYNAKTIADGVPSRFSGSGSGTQYSLKINSLQPEDFGSYYCQSFWSTYTFGGGTKLEIKR
B6: Mutation 1-40 (antibody, mouse IgG2b, kappa, V domains shown)
VH: QVQLQQPGAELVRPGASVKLSCKASGTSFTNYWMNWVKQRPGQGLEWIGMIHPSESETRLNQKFKDKATLTVDKSSSTAYMQLSSLTAEDSAVYYCAKSGEFYTYYFDYWGQGTTLTVSS
VL: DIQLTQSPASLSASVGETVTITCRGSGNIHNYLAWYQQKQGKSPQLLVYNARTIADGVPSRFSGSGSGTQYSLKINSLQPEDFGSYYCQTFWSTYTFGGGTKLEIKR
B7: Mutation 1-26 (antibody, mouse IgG2b, kappa, V domains shown)
VH: QVQLQQPGAELVRPGASVKLSCKASGYSFTNYWMNWVKQRPGQGLEWIGMIHPSDSETRVNQKFKDKATLTVDKSSSTAYMQLSSLTAEDSAVYYCAKSGDFYTTYFDYWGQGTTLTVSS
VL: DIQLTQSPASLSASVGETVTITCRGSGNVHNYLAWYQQKQGKSPQLLVYNAKTVADGVPSRFSGSGSGTQYSLKINSLQPEDFGSYYCQYFWSTYTFGGGTKLEIKR
B8: Mutation 1-32 (antibody, mouse IgG2b, kappa, V domains shown)
VH: QVQLQQPGAELVRPGASVKLSCKASGTSFTNYWMNWVKQRPGQGLEWIGMIHPSDSETRVNQKFKDKATLTVDKSSSTAYMQLSSLTAEDSAVYYCARSGDFYTTYFDYWGQGTTLTVSS
VL: DIQLTQSPASLSASVGETVTITCRGTGNVHNYLAWYQQKQGKSPQLLVYNAKTIADGVPSRFSGSGSGTQYSLKINSLQPEDFGSYYCQSFWSTYTFGGGTKLEIKR
B9: Mutation 1-36 (antibody, mouse IgG2b, kappa, V domains shown)
VH: QVQLQQPGAELVRPGASVKLSCKASGTSFTNYWMNWVKQRPGQGLEWIGMIHPSDSETRINQKFKDKATLTVDKSSSTAYMQLSSLTAEDSAVYYCAKSGDFYTSYFDYWGQGTTLTVSS
VL: DIQLTQSPASLSASVGETVTITCRGSGNLHNYLAWYQQKQGKSPQLLVYNAKTVADGVPSRFSGSGSGTQYSLKINSLQPEDFGSYYCQSFWSTYTFGGGTKLEIKR
B10: Mutation 1-34 (antibody, mouse IgG2b, kappa, V domains shown)
VH: QVQLQQPGAELVRPGASVKLSCKASGYSFTNYWMNWVKQRPGQGLEWIGMIHPSESETRLNQKFKDKATLTVDKSSSTAYMQLSSLTAEDSAVYYCARSGEFYTYYFDYWGQGTTLTVSS
VL: DIQLTQSPASLSASVGETVTITCRGTGNLHNYLAWYQQKQGKSPQLLVYNARTVADGVPSRFSGSGSGTQYSLKINSLQPEDFGSYYCQSFWSTYTFGGGTKLEIKR
B11: Mutation 1-39 (antibody, mouse IgG2b, kappa, V domains shown)
VH: QVQLQQPGAELVRPGASVKLSCKASGSSFTNYWMNWVKQRPGQGLEWIGMIHPSESETRINQKFKDKATLTVDKSSSTAYMQLSSLTAEDSAVYYCAKSGEFYTSYFDYWGQGTTLTVSS
VL: DIQLTQSPASLSASVGETVTITCRGTGNVHNYLAWYQQKQGKSPQLLVYNARTVADGVPSRFSGSGSGTQYSLKINSLQPEDFGSYYCQYFWSTYTFGGGTKLEIKR
B12: Mutation 1-24 (antibody, mouse IgG2b, kappa, V domains shown)
VH: QVQLQQPGAELVRPGASVKLSCKASGSSFTNYWMNWVKQRPGQGLEWIGMIHPSDSETRINQKFKDKATLTVDKSSSTAYMQLSSLTAEDSAVYYCAKSGDFYTSYFDYWGQGTTLTVSS
VL: DIQLTQSPASLSASVGETVTITCRGSGNLHNYLAWYQQKQGKSPQLLVYNAKTLADGVPSRFSGSGSGTQYSLKINSLQPEDFGSYYCQTFWSTYTFGGGTKLEIKR
B13: Mutation 1-38 (antibody, mouse IgG2b, kappa, V domains shown)
VH: QVQLQQPGAELVRPGASVKLSCKASGYSFTNYWMNWVKQRPGQGLEWIGMIHPSDSETRVNQKFKDKATLTVDKSSSTAYMQLSSLTAEDSAVYYCAKSGDFYTTYFDYWGQGTTLTVSS
VL: DIQLTQSPASLSASVGETVTITCRGSGNVHNYLAWYQQKQGKSPQLLVYNAKTLADGVPSRFSGSGSGTQYSLKINSLQPEDFGSYYCQTFWSTYTFGGGTKLEIKR
B14: Mutation 1-20 (antibody, mouse IgG2b, kappa, V domains shown)
VH: QVQLQQPGAELVRPGASVKLSCKASGSSFTNYWMNWVKQRPGQGLEWIGMIHPSDSETRVNQKFKDKATLTVDKSSSTAYMQLSSLTAEDSAVYYCARSGDFYTTYFDYWGQGTTLTVSS
VL: DIQLTQSPASLSASVGETVTITCRGTGNVHNYLAWYQQKQGKSPQLLVYNAKTVADGVPSRFSGSGSGTQYSLKINSLQPEDFGSYYCQTFWSTYTFGGGTKLEIKR
B15: Mutation 1-30 (antibody, mouse IgG2b, kappa, V domains shown)
VH: QVQLQQPGAELVRPGASVKLSCKASGSSFTNYWMNWVKQRPGQGLEWIGMIHPSDSETRINQKFKDKATLTVDKSSSTAYMQLSSLTAEDSAVYYCARSGDFYTSYFDYWGQGTTLTVSS
VL: DIQLTQSPASLSASVGETVTITCRGTGNIHNYLAWYQQKQGKSPQLLVYNAKTLADGVPSRFSGSGSGTQYSLKINSLQPEDFGSYYCQYFWSTYTFGGGTKLEIKR
B16: Mutation 1-23 (antibody, mouse IgG2b, kappa, V domains shown)
VH: QVQLQQPGAELVRPGASVKLSCKASGYSFTNYWMNWVKQRPGQGLEWIGMIHPSESETRVNQKFKDKATLTVDKSSSTAYMQLSSLTAEDSAVYYCARSGEFYTTYFDYWGQGTTLTVSS
VL: DIQLTQSPASLSASVGETVTITCRGSGNLHNYLAWYQQKQGKSPQLLVYNARTVADGVPSRFSGSGSGTQYSLKINSLQPEDFGSYYCQSFWSTYTFGGGTKLEIKR
B17: Mutation 1-31 (antibody, mouse IgG2b, kappa, V domains shown)
VH: QVQLQQPGAELVRPGASVKLSCKASGYSFTNYWMNWVKQRPGQGLEWIGMIHPSDSETRLNQKFKDKATLTVDKSSSTAYMQLSSLTAEDSAVYYCARSGDFYTYYFDYWGQGTTLTVSS
VL: DIQLTQSPASLSASVGETVTITCRGSGNIHNYLAWYQQKQGKSPQLLVYNAKTVADGVPSRFSGSGSGTQYSLKINSLQPEDFGSYYCQTFWSTYTFGGGTKLEIKR
B18: Mutation 1-21 (antibody, mouse IgG2b, kappa, V domains shown)
VH: QVQLQQPGAELVRPGASVKLSCKASGTSFTNYWMNWVKQRPGQGLEWIGMIHPSESETRINQKFKDKATLTVDKSSSTAYMQLSSLTAEDSAVYYCARSGEFYTSYFDYWGQGTTLTVSS
VL: DIQLTQSPASLSASVGETVTITCRGSGNVHNYLAWYQQKQGKSPQLLVYNARTIADGVPSRFSGSGSGTQYSLKINSLQPEDFGSYYCQYFWSTYTFGGGTKLEIKR
B19: Mutation 1-35 (antibody, mouse IgG2b, kappa, V domains shown)
VH: QVQLQQPGAELVRPGASVKLSCKASGSSFTNYWMNWVKQRPGQGLEWIGMIHPSESETRVNQKFKDKATLTVDKSSSTAYMQLSSLTAEDSAVYYCARSGEFYTTYFDYWGQGTTLTVSS
VL: DIQLTQSPASLSASVGETVTITCRGSGNLHNYLAWYQQKQGKSPQLLVYNARTIADGVPSRFSGSGSGTQYSLKINSLQPEDFGSYYCQYFWSTYTFGGGTKLEIKR
B20: Mutation 1-27 (antibody, mouse IgG2b, kappa, V domains shown)
VH: QVQLQQPGAELVRPGASVKLSCKASGYSFTNYWMNWVKQRPGQGLEWIGMIHPSESETRINQKFKDKATLTVDKSSSTAYMQLSSLTAEDSAVYYCAKSGEFYTSYFDYWGQGTTLTVSS
VL: DIQLTQSPASLSASVGETVTITCRGTGNVHNYLAWYQQKQGKSPQLLVYNARTLADGVPSRFSGSGSGTQYSLKINSLQPEDFGSYYCQSFWSTYTFGGGTKLEIKR
B21: Mutation 1-29 (antibody, mouse IgG2b, kappa, V domains shown)
VH: QVQLQQPGAELVRPGASVKLSCKASGSSFTNYWMNWVKQRPGQGLEWIGMIHPSESETRVNQKFKDKATLTVDKSSSTAYMQLSSLTAEDSAVYYCAKSGEFYTTYFDYWGQGTTLTVSS
VL: DIQLTQSPASLSASVGETVTITCRGTGNIHNYLAWYQQKQGKSPQLLVYNARTVADGVPSRFSGSGSGTQYSLKINSLQPEDFGSYYCQTFWSTYTFGGGTKLEIKR
B22: Mutation 1-22 (antibody, mouse IgG2b, kappa, V domains shown)
VH: QVQLQQPGAELVRPGASVKLSCKASGSSFTNYWMNWVKQRPGQGLEWIGMIHPSESETRLNQKFKDKATLTVDKSSSTAYMQLSSLTAEDSAVYYCARSGEFYTYYFDYWGQGTTLTVSS
VL: DIQLTQSPASLSASVGETVTITCRGTGNLHNYLAWYQQKQGKSPQLLVYNARTLADGVPSRFSGSGSGTQYSLKINSLQPEDFGSYYCQTFWSTYTFGGGTKLEIKR

The binders below were run against Pan-species-specific antigen Plasmodium Lactate DeHydrogenase (Pan-PLDH) protein (assay: indirect ELISA at four coating concentrations, KD calculated from half-maximal OD).

Question: Which Kd does the source give for B1 here?
Answer: 0.329 nM

Question: How did the Kd turn out when B2 was run?
Answer: 0.372 nM

Question: With B3 as the binder, how does the Kd read?
Answer: 0.759 nM

Question: How did the Kd turn out when B4 was run?
Answer: 0.52 nM

Question: For B5, which Kd is on record?
Answer: 0.493 nM

Question: B6 was tested. Which Kd did it give?
Answer: 0.439 nM

Question: How did the Kd turn out when B7 was run?
Answer: 0.374 nM

Question: With B8 as the binder, how does the Kd read?
Answer: 0.329 nM

Question: How did the Kd turn out when B9 was run?
Answer: 0.518 nM

Question: For B10, which Kd is on record?
Answer: 0.565 nM

Question: B11 was tested. Which Kd did it give?
Answer: 0.55 nM

Question: For B12, which Kd is on record?
Answer: 0.402 nM

Question: For B13, which Kd is on record?
Answer: 0.613 nM

Question: B14 was tested. Which Kd did it give?
Answer: 0.204 nM

Question: With B15 as the binder, how does the Kd read?
Answer: 0.198 nM

Question: B16 was tested. Which Kd did it give?
Answer: 0.319 nM

Question: With B17 as the binder, how does the Kd read?
Answer: 0.514 nM

Question: With B18 as the binder, how does the Kd read?
Answer: 0.655 nM

Question: Which Kd does the source give for B19 here?
Answer: 0.424 nM

Question: With B20 as the binder, how does the Kd read?
Answer: 0.427 nM

Question: Which Kd does the source give for B21 here?
Answer: 0.411 nM

Question: For B22, which Kd is on record?
Answer: 0.378 nM
